From US20090311237A1, “Combination therapy using a soluble hyaluronidase and a bisphosphonate” (priority 2008, published 2009)

Assays:
[1] = Hyaluronidase activity microturbidity (turbidometric) assay; type: biochemical; conditions: purified soluble rHuPH20 (Gen1, 5 L bioreactor); USP reference standard
Procedure: Hyaluronidase activity can be assessed using methods well known in the art. In one example, activity is measured using a microturbidity assay. This is based on the formation of an insoluble precipitate when hyaluronic acid binds with serum albumin. The activity is measured by incubating hyaluronidase with sodium hyaluronate (hyaluronic acid) for a set period of time (e.g. 10 minutes) and then precipitating the undigested sodium hyaluronate with the addition of acidified serum albumin. The turbidity of the resulting sample is measured at 640 nm after an additional development period. […] Following incubation with hyaluronidase, the residual biotinylated hyaluronic acid substrate is detected using an avidin-peroxidase reaction, and compared to that obtained following reaction with hyaluronidase standards of known activity.
Hyaluronidase activity of soluble rHuPH20 in samples such as cell cultures, purification fractions and purified solutions was determined using a turbidometric assay, which based on the formation of an insoluble precipitate when hyaluronic acid binds with serum albumin. The activity is measured by incubating soluble rHuPH20 with sodium hyaluronate (hyaluronic acid) for a set period of time (10 minutes) and then precipitating the undigested sodium hyaluronate with the addition of acidified serum albumin. […]

[2] = tested on: Sprague Dawley rats; test: Injection site reactions (gross ISR incidence, lesion area) after intradermal injection of zoledronic acid with or without rHuPH20; type: in vivo, rat; conditions: for shift of half maximal effect (EC50) of ZA concentration vs lesion area curve: with vs without 10,000 U/mL rHuPH20
Procedure: A rodent model of local injection site injury caused by ZA injection was employed for the study. […] Injection into the dermis facilitates external visualization and assessment of the irritant.
Nine to ten week old female Sprague Dawley rats, having approximate body weight of 200-250 grams, were employed for the study. One day prior to injection, rats were shaved and hair on the back and flank area were removed by Nair® cream (exposure less than 1 min to depilation cream) followed by deep wash with warm tap water. On the day of dosing, all rats were injected intradermally in flank area (one or two injection spots per side), with 0.1 or 0.2 mL as indicated of zoledronic acid solution, with or without rHuPH20, at each corresponding concentration as shown in study design table. Injection site appearance was observed and quantified by blind assessment each day following the injection until the end of the study, at which time animals were sacrificed and the skin around the dosing area as well as a part of the skin that was not effected by the dosing were collected and fixed in 10% neutral buffered formalin (NBF) and further embedded in paraffin, 5 μm sections were cut for H&E stain and histopathology evaluation.
Lesion area was calculated by the following formula: W×L×¼π. Quantitative results were analyzed using one-way analysis of variance (ANOVA) method, followed by Dunnett's comparison method (Prizm 4 program). The probability values of less than 0.05 (two-tailed) were used as the critical level of significance for all tests. Groups with a sample size of two were excluded from analysis. If the sample size was 2 for the control group, there were no statistical analyses at that interval for any of the groups. Histopathologic findings were characterized by semi-quantitative analysis of necrosis and infiltration in the skin tissue. The incidences of each finding were compared with control groups by Chi-square test.
Prior to ZA intradermal injection, rats were randomized by body weight into 7 groups of 1 or 2 rats per group (Table 2). Rats were injected with either 0.1 mL or 0.2 mL of each corresponding concentration intradermally at two separate locations on each shaved flank side for a total of 4 injections for each animal. Injection sites were observed daily post-injection for four days. Pictures of injection site reaction (ISR) area were captured by digital camera and lesion area was scored for induration, erythema, or ulceration. Two perpendicular diameters (width & length) of injection site lesion were measured by microcaliper. The lesion area was defined as the area bounded by the outer edge of the erythemic zone. Upon completion of the study, the animals were euthanized and skin at the injection site and from an untreated area of the back of the rat were excised, mounted flat onto a piece of cardboard, and placed in 10% NBF.
A series of experiments were conducted in which various dosing concentrations of rHuPH20 were tested for the ability to reduce acute injection site lesions. Prior to ZA intra-dermal injection, rats were randomized by body weight into 11 groups of 2 rats per group. Rats were injected intradermally with 0.1 mL of each co-formulated solution as shown in Table 5 and observed daily with ISR development assessed as in Section B. Four days after injection, rats were sacrificed and the skin at the injection site as well as untreated skin from the back was excised, mounted flat onto a piece of cardboard, and placed in 10% NBF.
Prior to ZA intra-dermal injection, rats were randomized by body weight into 6 groups of 3 rats per group (Table 6). Rats were intradermally injected with 0.1 mL of each corresponding co-formulated solution at two separate locations, two on each shaved flank side, for a total of 4 injections for each animal. Injection sites were observed daily with ISR development assessed as in Section B for 6 days. […]

B1: rHuPH20: soluble form of human PH20 hyaluronidase recombinantly expressed in Chinese Hamster Ovary (CHO) cells (protein, listed as Homo sapiens)
chain: LNFRAPPVIPNVPFLWAWNAPSEFCLGKFDEPLDMSLFSFIGSPRINATGQGVTIFYVDRLGYYPYIDSITGVTVNGGIPQKISLQDHLDKAKKDITFYMPVDNLGMAVIDWEEWRPTWARNWKPKDVYKNRSIELVQQQNVQLSLTEATEKAKQEFEKAGKDFLVETIKLGKLLRPNHLWGYYLFPDCYNHHYKKPGYNGSCFNVEIKRNDDLSWLWNESTALYPSIYLNTQQSPVAATLYVRNRVREAIRVSKIPDAKSPLPVFAYTRIVFTDQVLKFLSQDELVYTFGETVALGASGIVIWGTLSIMRSMKSCLLLDNYMETILNPYIINVTLAAKMCSQVLCQEQGVCIRKNWNSSDYLHLNPDNFAIQLEKGGKFTVRGKPTLEDLEQFSEKFYCSCYSTLSCKEKADVKDTDAVDVCIADGVCIDAFLKPPMETEEPQIFY
modifications: soluble rHuPH20 1-447
notes: soluble form of human PH20 hyaluronidase recombinantly expressed in Chinese Hamster Ovary (CHO) cells
With B1 the specific activity [1] was > 65,000 USP Units/mg protein, the “rHuPH20 concentration with maximal effect on ISR formation” value ([2]; rat ID model, preliminary experiments) was 10,000 U/mL and the “suppression of injection site lesion formation” value ([2]; rat ID, 10,000 U/mL rHuPH20 co-formulated with ZA up to 0.05 mg/mL) was “complete suppression”. For the same molecule, the “threshold of rHuPH20 in lesion area reduction” value ([2]; rat ID, all ZA concentrations tested (0.05 to 0.4 mg/ml)) was 100 U/mL, the “rHuPH20 concentration at which maximal activity was reached” value ([2]; rat ID, regardless of ZA concentration (0.05 to 0.4 mg/ml)) was 1000 U/mL and the “shift of half maximal effect (EC50) of ZA concentration vs lesion area curve” value (“shift of half maximal effect” for short) ([2]; rat ID, day 2) was “approximately 2.4 fold”. For the same molecule, the “shift of half maximal effect” value ([2]; rat ID, day 3) was roughly 3.3 fold and the “shift of half maximal effect” value ([2]; rat ID, day 4) was roughly 5.7 fold.
